This is an account of results in patent US20190194304A1 (STICHTING SANQUIN BLOEDVOORZIENING, published 2019).

T1: recombinant FH CCP 18-20 (human, UniProt P08603 1046-1231, 125I label)
T1 construct: domain: CCP 18-20; also called recombinant FH CCP domains 18-20
T1 sequence (looked up): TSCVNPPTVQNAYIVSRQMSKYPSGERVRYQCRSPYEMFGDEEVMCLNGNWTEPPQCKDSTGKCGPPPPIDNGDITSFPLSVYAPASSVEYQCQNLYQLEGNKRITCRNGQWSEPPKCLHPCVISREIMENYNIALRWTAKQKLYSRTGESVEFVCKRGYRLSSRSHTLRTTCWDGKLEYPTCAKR

T2: recombinant FH CCP 15-19 (human, UniProt P08603 868-1165, 125I label)
T2 construct: domain: CCP 15-19; also called recombinant FH CCP domains 15-19
T2 sequence (looked up): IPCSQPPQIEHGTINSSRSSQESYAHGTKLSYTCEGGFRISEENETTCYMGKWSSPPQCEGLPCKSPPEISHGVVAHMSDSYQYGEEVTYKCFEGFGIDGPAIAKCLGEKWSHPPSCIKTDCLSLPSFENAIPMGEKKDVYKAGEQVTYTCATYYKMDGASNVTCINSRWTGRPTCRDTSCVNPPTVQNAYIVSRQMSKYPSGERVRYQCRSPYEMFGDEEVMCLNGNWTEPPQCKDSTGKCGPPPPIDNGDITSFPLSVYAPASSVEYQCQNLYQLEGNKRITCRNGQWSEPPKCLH

T3: recombinant FH CCP 15-18 (human, UniProt P08603 868-1104, 125I label)
T3 construct: domain: CCP 15-18; also called recombinant FH CCP domains 15-18
T3 sequence (looked up): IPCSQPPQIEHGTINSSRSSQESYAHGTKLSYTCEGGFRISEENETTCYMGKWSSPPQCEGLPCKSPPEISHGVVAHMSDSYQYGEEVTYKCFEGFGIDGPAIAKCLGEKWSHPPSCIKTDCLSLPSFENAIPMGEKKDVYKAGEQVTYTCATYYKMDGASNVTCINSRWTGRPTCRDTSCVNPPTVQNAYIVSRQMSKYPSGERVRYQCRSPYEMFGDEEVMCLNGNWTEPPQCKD

B1: human factor H (other, UniProt P08603 19-1231, looked up)
chain: EDCNELPPRRNTEILTGSWSDQTYPEGTQAIYKCRPGYRSLGNVIMVCRKGEWVALNPLRKCQKRPCGHPGDTPFGTFTLTGGNVFEYGVKAVYTCNEGYQLLGEINYRECDTDGWTNDIPICEVVKCLPVTAPENGKIVSSAMEPDREYHFGQAVRFVCNSGYKIEGDEEMHCSDDGFWSKEKPKCVEISCKSPDVINGSPISQKIIYKENERFQYKCNMGYEYSERGDAVCTESGWRPLPSCEEKSCDNPYIPNGDYSPLRIKHRTGDEITYQCRNGFYPATRGNTAKCTSTGWIPAPRCTLKPCDYPDIKHGGLYHENMRRPYFPVAVGKYYSYYCDEHFETPSGSYWDHIHCTQDGWSPAVPCLRKCYFPYLENGYNQNYGRKFVQGKSIDVACHPGYALPKAQTTVTCMENGWSPTPRCIRVKTCSKSSIDIENGFISESQYTYALKEKAKYQCKLGYVTADGETSGSITCGKDGWSAQPTCIKSCDIPVFMNARTKNDFTWFKLNDTLDYECHDGYESNTGSTTGSIVCGYNGWSDLPICYERECELPKIDVHLVPDRKKDQYKVGEVLKFSCKPGFTIVGPNSVQCYHFGLSPDLPICKEQVQSCGPPPELLNGNVKEKTKEEYGHSEVVEYYCNPRFLMKGPNKIQCVDGEWTTLPVCIVEESTCGDIPELEHGWAQLSSPPYYYGDSVEFNCSESFTMIGHRSITCIHGVWTQLPQCVAIDKLKKCKSSNLIILEEHLKNKKEFDHNSNIRYRCRGKEGWIHTVCINGRWDPEVNCSMAQIQLCPPPPQIPNSHNMTTTLNYRDGEKVSVLCQENYLIQEGEEITCKDGRWQSIPLCVEKIPCSQPPQIEHGTINSSRSSQESYAHGTKLSYTCEGGFRISEENETTCYMGKWSSPPQCEGLPCKSPPEISHGVVAHMSDSYQYGEEVTYKCFEGFGIDGPAIAKCLGEKWSHPPSCIKTDCLSLPSFENAIPMGEKKDVYKAGEQVTYTCATYYKMDGASNVTCINSRWTGRPTCRDTSCVNPPTVQNAYIVSRQMSKYPSGERVRYQCRSPYEMFGDEEVMCLNGNWTEPPQCKDSTGKCGPPPPIDNGDITSFPLSVYAPASSVEYQCQNLYQLEGNKRITCRNGQWSEPPKCLHPCVISREIMENYNIALRWTAKQKLYSRTGESVEFVCKRGYRLSSRSHTLRTTCWDGKLEYPTCAKR
notes: mature; Purified plasma FH (CompTech) in SPR, bridging ELISA and hybridoma screening (biotinylated); FH of healthy donor or aHUS patient serum in the C3b ELISA and the functional assays. aHUS sera carry a heterozygous mutation in CCP 20 that is not specified; also called FH; human purified factor H
B2: monoclonal antibody anti-FH.07 (murine IgG1) (antibody, V domains shown)
VH: QVQLQQSGPGLVQPSQSLSITCTVSDFSLARYGVHWIRQSPGKGLEWLGVIWSGGTADYNAAFISRLNINKDNSKSQVFFKMNSLQANDTAIYYCARNFGNYAVDYWGQGTS
VL: QIVLSQSPTFLSASPGEKVTVTCRASSSVKYMHWYQQKPGASPKPWIFATSNLASGVPARFSGSGSGTSYSLTISRVEAEDAATYYCQQWSIIPPTFGNGTKLELK
notes: Captured with rat anti-mouse kappa RM19; also called intact IgG; intact antibody
B3: F(ab′)2 fragments of anti-FH.07 (other)
VH: B2 VH
VL: B2 VL
notes: also called anti-FH.07 F(ab′)2
B4: Fab′ fragments of anti-FH.07 (Fab, V domains shown)
VH: B2 VH
VL: B2 VL
modifications: free thiol groups blocked with iodoacetamide after reduction with dithioerythritol
notes: also called anti-FH.07 Fab′

For experiment [1], the target named is T4, C3b (UniProt P01024 23-667; P01024 749-1663, limits assumed).
T4 construct: domain: C3b; C3b has two disulfide-linked chains (beta and alpha′); also called purified C3b
The experiment can be described thus: SPR, 0.5 µM FH with anti-FH.07 Fab′ (2 to 1 molar ratio) over immobilised C3b. Here is the method: (§1) Binding of FH to C3b, iC3b or C3d in the presence of the anti-FH moAbs was determined by surface plasmon resonance using a Biacore T3000 instrument (GE Healthcare, Little Chalfont, UK). Purified C3b, iC3b or C3d (Complement Technologies) was immobilized onto one of three flow cells of a CM5 Biacore Sensor Chip (GE Healthcare) using standard […] coupling. The remaining flow cell was used as reference surface and prepared by performing a coupling reaction without the addition of any protein. A response of 4400 response units (RUs), 4180 RUs and 1470 RUs was obtained after coupling with C3b, iC3b and C3d, respectively. SPR experiments were performed at 25° C. using a flow rate of 10 μl/min and in 10 mM HEPES-buffered 150 mM saline, pH 7.4, with 0.05% (w/v) Tween-20 (HBS-P). Duplicate injections of 0.5 μM FH with a contact time of 210 seconds were performed to obtain a reference binding signal for FH on each surface. […]
(§2) In addition, SPR experiments were conducted to study the interaction of FH with C3b, iC3b and C3d in the absence and presence of […] Fab′ fragments. Briefly, three flow cells of a CM5 Biacore Sensor chip were coated with either C3b, iC3b or C3d and interactions of FH with these surfaces in the absence or presence of anti-FH moAb was determined on a Biacore T3000 system.
(In general: SPR reads the build-up and loss of mass on a sensor chip optically.)

The target of experiment [2] is T5, iC3b (UniProt P01024 23-667; P01024 749-1303; P01024 1321-1663, limits assumed).
T5 construct: domain: iC3b; also called purified iC3b
The experiment can be described thus: SPR, 0.5 µM FH with anti-FH.07 Fab′ (2 to 1 molar ratio) over immobilised iC3b. As to the method: as §1, §2

The target in experiment [3] is T1, recombinant FH CCP 18-20. The experiment can be described thus: radioimmunoassay, moAb on RM-19 sepharose, 125I-labelled fragment. As to the method: (§3) Reactivity of FH specific moAbs was tested with recombinant human FH fragments composed of multiple CCPs. To this end, fifty microliter of 100 μg/ml anti-FH moAbs was mixed with 0.5 ml of 2 mg/ml RM-19 coupled-sepharose (25 μg moAb per 1 mg CnBr-Sepharose). The FH fragments were labelled with ¹²⁵I and 100 μl (20000 c/30 sec) was added to each sample followed by incubation O/N. The assay was performed in PBS with 0.1% (w/v) Tween-20 and 0.1% (w/v) BSA (PTB). Samples were washed 5 times with PBS with 0.1% (w/v) Tween-20 and counted for 30 seconds. Sepharose bound radioactivity was measured and compared to total input (set to 100%).
(§4) In order to map the binding site of anti-FH.07, we tested the reactivity of this moAb towards a panel of radiolabeled recombinant CCP domains or purified human FH. Binding of the moAbs was tested in a radioimmunoassay and was related to the input (100%).

Experiment [4] addresses T2, recombinant FH CCP 15-19. Described as above. As to the method: as §3, §4
In experiment [5] the target is T3, recombinant FH CCP 15-18. Described as above. As to the method:
as §3, §4

The target of experiment [6] is B1. The experiment can be described thus: bridging ELISA: FH coat, biotinylated FH for detection. Here is the method:
One possible mechanism for the observed increased FH inhibitory function upon incubation with anti-FH.07 is multimerization of FH by crosslinking via the antibody, thereby increasing the avidity of FH for the surface. To test this possibility, we generated monovalent Fab′ fragments of anti-FH.07. If crosslinking of FH is the cause of the observed increased FH function, monovalent Fab′ fragments are expected to show no potentiating effect. With a bridging ELISA we first checked whether the generated Fab′ fragments were indeed completely monovalent and not capable to crosslink FH molecules. To this end an ELISA plate was coated with FH and biotinylated FH was used for detection. […] The anti-FH.07 F(ab′)₂ and Fab′ fragments were then tested in the C3 deposition assays on zymosan and LPS coated plates. To our surprise we observed the same potentiating effect of the Fab′ fragments on FH function. […] Therefore we concluded that the effect of anti-FH.07 was not due to crosslinking of FH molecules by the monoclonal antibody.

Experiment [7] concerns the target T4, C3b. Description: SPR, Fab′ injected without FH over immobilised C3b. Here is the method:
Binding of FH to C3b, iC3b or C3d in the presence of the anti-FH moAbs was determined by surface plasmon resonance using a Biacore T3000 instrument (GE Healthcare, Little Chalfont, UK). Purified C3b, iC3b or C3d (Complement Technologies) was immobilized onto one of three flow cells of a CM5 Biacore Sensor Chip (GE Healthcare) using standard […] coupling. The remaining flow cell was used as reference surface and prepared by performing a coupling reaction without the addition of any protein. A response of 4400 response units (RUs), 4180 RUs and 1470 RUs was obtained after coupling with C3b, iC3b and C3d, respectively. SPR experiments were performed at 25° C. using a flow rate of 10 μl/min and in 10 mM HEPES-buffered 150 mM saline, pH 7.4, with 0.05% (w/v) Tween-20 (HBS-P). Duplicate injections of 0.5 μM FH with a contact time of 210 seconds were performed to obtain a reference binding signal for FH on each surface. After each sample injection a dissociation time of 240 seconds was allowed, using HBS-P as running buffer, followed by a single 30 seconds injection of 1 M NaCl to regenerate the surface.
To determine the effect of anti-FH.07 without interference of possible cross-linking via the moAb, Fab′ fragments, generated as described above, were used. […]

T4 sequence (P01024 23-667 limits assumed, chain 1 of 2): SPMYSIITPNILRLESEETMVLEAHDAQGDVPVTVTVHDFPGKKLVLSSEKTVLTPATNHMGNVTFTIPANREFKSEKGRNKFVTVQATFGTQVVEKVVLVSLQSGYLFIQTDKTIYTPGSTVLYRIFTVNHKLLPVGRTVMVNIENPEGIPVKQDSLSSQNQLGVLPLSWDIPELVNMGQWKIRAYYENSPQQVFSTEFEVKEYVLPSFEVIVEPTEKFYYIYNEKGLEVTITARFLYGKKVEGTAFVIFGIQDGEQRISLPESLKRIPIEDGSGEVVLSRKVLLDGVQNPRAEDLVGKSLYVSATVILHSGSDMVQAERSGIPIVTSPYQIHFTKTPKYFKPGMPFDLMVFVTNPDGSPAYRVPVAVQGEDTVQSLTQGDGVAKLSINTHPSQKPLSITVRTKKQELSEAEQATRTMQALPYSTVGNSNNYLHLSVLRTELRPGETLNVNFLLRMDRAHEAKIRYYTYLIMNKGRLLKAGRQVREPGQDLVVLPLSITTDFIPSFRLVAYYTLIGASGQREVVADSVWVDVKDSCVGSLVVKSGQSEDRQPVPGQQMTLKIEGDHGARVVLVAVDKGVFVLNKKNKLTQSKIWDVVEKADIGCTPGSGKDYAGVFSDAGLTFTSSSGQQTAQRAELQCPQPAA
T4 sequence (P01024 749-1663 limits assumed, chain 2 of 2): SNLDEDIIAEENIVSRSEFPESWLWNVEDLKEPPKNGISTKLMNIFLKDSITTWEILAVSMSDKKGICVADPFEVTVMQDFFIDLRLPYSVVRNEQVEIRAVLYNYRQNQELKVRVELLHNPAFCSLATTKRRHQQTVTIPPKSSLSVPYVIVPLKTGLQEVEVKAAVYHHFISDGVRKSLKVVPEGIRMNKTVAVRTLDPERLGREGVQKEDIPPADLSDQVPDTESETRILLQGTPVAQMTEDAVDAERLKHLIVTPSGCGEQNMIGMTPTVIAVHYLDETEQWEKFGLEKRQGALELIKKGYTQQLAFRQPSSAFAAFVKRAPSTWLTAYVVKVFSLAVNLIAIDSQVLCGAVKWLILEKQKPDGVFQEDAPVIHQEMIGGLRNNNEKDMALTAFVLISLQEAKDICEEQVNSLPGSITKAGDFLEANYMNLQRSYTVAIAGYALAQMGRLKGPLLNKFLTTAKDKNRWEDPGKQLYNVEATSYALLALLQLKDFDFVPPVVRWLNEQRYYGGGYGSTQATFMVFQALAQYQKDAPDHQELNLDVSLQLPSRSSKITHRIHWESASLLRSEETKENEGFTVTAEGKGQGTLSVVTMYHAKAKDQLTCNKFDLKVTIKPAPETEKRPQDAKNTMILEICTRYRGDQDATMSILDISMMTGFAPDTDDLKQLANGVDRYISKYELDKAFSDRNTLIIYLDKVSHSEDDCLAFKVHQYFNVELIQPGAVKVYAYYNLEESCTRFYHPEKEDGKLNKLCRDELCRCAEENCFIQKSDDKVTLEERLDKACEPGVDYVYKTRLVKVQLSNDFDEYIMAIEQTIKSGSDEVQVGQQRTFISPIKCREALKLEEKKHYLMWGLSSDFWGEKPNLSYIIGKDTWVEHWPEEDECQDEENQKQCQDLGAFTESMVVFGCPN
T5 sequence (P01024 23-667 limits assumed, chain 1 of 3): as the sequence (P01024 23-667 limits assumed, chain 1 of 2) above
T5 sequence (P01024 749-1303 limits assumed, chain 2 of 3): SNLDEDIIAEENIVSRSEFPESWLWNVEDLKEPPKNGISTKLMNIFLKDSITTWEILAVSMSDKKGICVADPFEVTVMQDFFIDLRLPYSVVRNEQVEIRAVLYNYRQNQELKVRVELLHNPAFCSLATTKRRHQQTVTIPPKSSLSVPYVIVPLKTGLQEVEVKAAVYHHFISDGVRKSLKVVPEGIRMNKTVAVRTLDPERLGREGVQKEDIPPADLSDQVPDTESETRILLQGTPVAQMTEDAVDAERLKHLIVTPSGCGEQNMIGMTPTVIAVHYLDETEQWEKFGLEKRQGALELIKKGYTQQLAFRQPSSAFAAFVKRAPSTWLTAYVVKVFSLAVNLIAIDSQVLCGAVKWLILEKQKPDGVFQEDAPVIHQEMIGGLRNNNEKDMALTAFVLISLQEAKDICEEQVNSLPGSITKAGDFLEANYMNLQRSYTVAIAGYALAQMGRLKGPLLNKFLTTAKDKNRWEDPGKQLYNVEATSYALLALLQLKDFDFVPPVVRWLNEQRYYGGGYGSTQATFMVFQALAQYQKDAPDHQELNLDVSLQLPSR
T5 sequence (P01024 1321-1663 limits assumed, chain 3 of 3): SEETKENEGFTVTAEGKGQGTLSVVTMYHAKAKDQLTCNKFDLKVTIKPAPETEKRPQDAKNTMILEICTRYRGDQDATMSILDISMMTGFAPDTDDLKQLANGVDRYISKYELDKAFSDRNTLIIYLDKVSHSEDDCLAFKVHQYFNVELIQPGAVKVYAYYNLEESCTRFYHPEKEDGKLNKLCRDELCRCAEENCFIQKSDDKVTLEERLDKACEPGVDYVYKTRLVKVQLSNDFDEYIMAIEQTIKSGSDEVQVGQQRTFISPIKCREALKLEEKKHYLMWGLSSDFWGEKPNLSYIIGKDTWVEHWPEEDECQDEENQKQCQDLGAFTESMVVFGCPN

On to B1, for which the “fold increase of the measured interactions (RU) with anti-FH.07 Fab′ against FH alone” value in experiment [1] and in experiment [2] was at least 2 fold in each case.

For B2, the binding result in experiment [3], in experiment [4], in experiment [5] and in experiment [6] was “binds” each time.

Turning to B3, in experiment [6], the binding result is listed as “binds”.

Consider B4, for which the binding result in experiment [7] is “no binding”.
